{
  "source": "patent US20200129630A1",
  "about": "“METHODS FOR TREATING CANCER” (BicycleRD Limited, priority 2018, published 2020)",
  "key": {"[1]": {"assay": "Non-GLP toxicity studies, dog", "assay_type": "in vivo", "description": "These include in vitro tissue microarray in human, rat and monkey tissues and in vitro and in vivo assessment of immunogenicity. In vivo assessments include single dose toxicity in mice and rats, multiple dose range finding studies in mice, rats, dogs and monkeys (non-GLP) and GLP-compliant multiple dose studies in rats and monkeys consisting of 28-day on study phase with a 28-day recovery period."}, "[2]": {"assay": "Plasma protein binding, mouse", "assay_type": "in vitro ADME, mice", "conditions": "read-out: free fraction", "method": "(§1) Plasma protein binding of BT1718 was also assessed. The mean plasma protein binding of the BT1718 peptide ranged from 87% to 98%, with the free fraction of BT1718 being 13% in human, 2.6% in rats, 7.5% in mice, 3.8% in monkey and 1.5% in dog plasma, the results had no correlation to the plasma and whole blood stability data. […] Plasma protein binding of unconjugated DM1, has previously been reported, with the unbound fraction being 7% in human and monkey and 3% in rat."}, "[3]": {"assay": "Stability in whole blood in vitro, rat", "assay_type": "in vitro ADME", "conditions": "37° C.", "method": "The stability of BT1718 was assessed in plasma and whole blood from humans, monkey, dog, mouse and rat. […] The mechanism for the difference in stability of the BT1718 peptide in whole blood between the different species is unknown."}, "[4]": {"assay": "Plasma protein binding, monkey", "assay_type": "in vitro ADME", "conditions": "read-out: free fraction", "method": "as §1"}, "[5]": {"assay": "Plasma protein binding, rat", "assay_type": "in vitro ADME, rats", "conditions": "read-out: free fraction", "method": "as §1"}, "EBC-1": {"system": "EBC-1", "assay": "In vitro cytotoxicity (CellTiter-Glo) EBC-1", "assay_type": "cell-based", "conditions": "EBC-1, Lung", "excerpt": "Table 1 and Table 2 Notes: in general regression and stable disease correlated with the in vitro cytotoxicity and MT1-MMP expression. Female BALB/c mice n=3/group animals dosed twice per week except EBC-1 three per week. Tumor growth inhibition (TGI) (%)=[1−(Ti−T0)/(Vi−V0)]×100; Ti is the average tumor volume of a treatment group on a given day, TO is the average tumor volume of the treatment group on the day of treatment start, Vi is the average tumor volume of vehicle control group on the same day with Ti, and V0 is the average tumor volume of vehicle group on the day of treatment start. A one-way ANOVA was performed to compare tumor volume among groups, and when a significant F-statistics (a ratio of treatment variance to the error variance) was obtained, comparisons between groups were carried out with Games-Howell test. All data were analyzed using GraphPad Prism.* p<0.05, ** p<0.01, *** p<0.001. In vitro cytotoxicity was measured by CellTiter-Glo®, MT1-MMP membrane H score from immunohistochemistry staining, NM not measured. Tumor size on Day 1 of dosing."}, "[6]": {"assay": "Plasma protein binding, dog", "assay_type": "in vitro ADME", "conditions": "read-out: free fraction", "method": "as §1"}, "[7]": {"assay": "CNS behavioral model (Irwin study)", "assay_type": "in vivo", "conditions": "single dose 0.2, 0.5 or 1 mg/kg, rats", "method": "As part of the Good Laboratory Practice (GLP)-compliant toxicity studies, a core battery of safety pharmacology tests were performed. […] Electrocardiogram (ECG) and respiratory plethysmography measurements were taken in monkeys dosed at 0.2, 0.5, 1 and 1.5 mg/kg (2.4, 6, 12 and 18 mg/m^2 respectively) twice weekly on Day 4, Day 22 (following 2nd and 7th dose) and in the recovery period (for animals dosed with 0, 6 and 12 mg/m^2 twice weekly). Blood pressure (BP) measurements were also evaluated in the same monkeys on Day 1 and Day 25 and in the recovery period. […] It is therefore concluded that BT1718 has no cardiac, respiratory or behavioral liability at the doses and schedule tested in the GLP toxicity studies."}, "[8]": {"assay": "Total DM1 in plasma and urine / excretion (preclinical)", "assay_type": "in vivo", "method": "Efficacy in this model was reduced in the conjugates containing the least cleavable linkers. […] Effective treatment was also seen with same total dose, given at on schedules from daily to a single weekly dose.\nThe concentration of total DM1 in plasma and urine was also measured following a reduction step, to detect DM1 in BT1718, any peptidyl-DM1 metabolites of BT1718, other DM1-containing mixed disulfides and free DM1. The level of total DM1 in plasma and urine increased with increasing dose, with about 85% of the total DM1 recovered in urine within 48 hours of BT1718 administration. […] An assay for free DM1 has not been successfully developed due to the instability of the free thiol in biological matrices."}, "[9]": {"conditions": "dogs 1 mg/kg, 20 mg/m^2 twice weekly"}},
  "note": "Numbered stars: 1 amine (or outer) side, 2 acyl side, 3 side chain; on linkers, the order of the positions; unused ones are H or OH. Bridge positions count the residues as written; N and C are the ends. Square brackets hold non-standard residues; d marks the D form. Peptide text beside a SMILES is read from it. * marks the point of attachment. X1 = COc1cc2cc(c1Cl)N(C)C(=O)C[C@H](OC(=O)[C@H](C)N(C)C(=O)CCSSC(C)CCC(=O)*)[C@]1(C)O[C@H]1[C@H](C)[C@@H]1C[C@@](O)(NC(=O)O1)[C@H](OC)/C=C/C=C(\\C)C2; 1Nal = N[C@@H](Cc1cccc2ccccc12)C(=O)O; TBMB = c1c(C[*:1])cc(C[*:3])cc1C[*:2]; Tle = CC(C)(C)[C@H](N)C(=O)O; βAla = NCCC(=O)O; Sar = CNCC(=O)O",
  "data": [
    {"smiles": "COc1cc2cc(c1Cl)N(C)C(=O)C[C@H](OC(=O)[C@H](C)N(C)C(=O)CCSSC(C)CCC(=O)NCCC(=O)N(C)CC(=O)N(C)CC(=O)N(C)CC(=O)N(C)CC(=O)N(C)CC(=O)N(C)CC(=O)N(C)CC(=O)N(C)CC(=O)N(C)CC(=O)N(C)CC(=O)N[C@@H](C)C(=O)N[C@H]1CSCc3cc4cc(c3)CSC[C@H](NC(=O)[C@@H](C)NC(=O)[C@H](Cc3cccc5ccccc35)NC(=O)[C@H](CCC(=O)O)NC(=O)[C@H](CC(N)=O)NC(=O)[C@@H](C)NC1=O)C(=O)N[C@@H](CCC(=O)O)C(=O)N[C@@H](CC(=O)O)C(=O)N[C@@H](Cc1ccccc1)C(=O)N[C@@H](Cc1ccc(O)cc1)C(=O)N[C@@H](CC(=O)O)C(=O)N[C@@H](C(C)(C)C)C(=O)N[C@H](C(N)=O)CSC4)[C@]1(C)O[C@H]1[C@H](C)[C@@H]1C[C@@](O)(NC(=O)O1)[C@H](OC)/C=C/C=C(\\C)C2", "note": "(some centres unmarked) [BT1718] ({X1-βAla}-[Sar][Sar][Sar][Sar][Sar][Sar][Sar][Sar][Sar][Sar]AC[dA]NE[1Nal][dA]CEDFYD[Tle]C-NH2; linker 12-18-25 via TBMB (inferred))", "values": [
      {"measurement": "GI findings", "setting": "[1]; dog 1 mg/kg (20 mg/m^2) twice weekly", "value": "Slight to moderate small intestinal degeneration"},
      {"measurement": "bladder findings", "setting": "[1]; dog, 14 mg/m^2 twice weekly", "value": "Bladder epithelial degeneration"},
      {"measurement": "hepatic findings", "setting": "[1]; [9]", "value": "Elevated liver enzymes"},
      {"measurement": "peripheral haematology", "setting": "[1]; [9]", "value": "significant decreases in WBCs"},
      {"measurement": "renal findings", "setting": "[1]; [9]", "value": "Moderate renal tubule degeneration and epithelial mitosis"},
      {"measurement": "fraction unbound", "setting": "[2]", "value": 0.075},
      {"measurement": "half-life", "setting": "[3]", "value": "> 24", "unit": "h"},
      {"measurement": "fraction unbound", "setting": "[4]", "value": 0.038},
      {"measurement": "fraction unbound", "setting": "[5]", "value": 0.026},
      {"measurement": "IC50", "setting": "EBC-1", "value": 27, "unit": "nM"},
      {"measurement": "fraction unbound", "setting": "[6]", "value": 0.015},
      {"measurement": "CNS behavioral effects (Irwin study)", "setting": "[7]", "value": "No effects"},
      {"measurement": "route of excretion", "setting": "[8]; preliminary metabolism studies", "value": "excreted mainly through the kidney in urine"},
      {"measurement": "total DM1 recovered in urine", "setting": "[8]; within 48 hours of BT1718 administration", "value": "about 85%"}
    ]}
  ]
}
